Measured values published in patent US7407939.
Where no end group is shown, it is not given here. Side-chain parts run from the residue outwards. [ ]: non-standard residue; d: D form. The star is where a group is joined. O‑CO‑N‑SO2‑IQ = carbamate-linked N-sulfonyl 5-aminoethylsulfonamide isoquinoline (O-CO-N-SO2-IQ); SO2‑IQ = 5-aminoethylsulfoneamide isoquinoline, O=S(=O)(NCCN*)c1cccc2cnccc12; X1 = 5‑aminoethylsulfonamide isoquinoline, O=S(=O)(NCCN*)c1cccc2cnccc12; S‑IQ = 5-mercaptoaminopropyl isoquinoline; hLeu = CC(C)CC[C@H](N)C(=O)O; GltNH2 = not defined here; Nle = CCCC[C@H](N)C(=O)O; Orn = NCCC[C@H](N)C(=O)O; bGaba = not defined here; Dab = NCC[C@H](N)C(=O)O; Nva = CCC[C@H](N)C(=O)O; Abu = CC[C@H](N)C(=O)O; Dap = NC[C@H](N)C(=O)O; Ph2 = not defined here; GlyNH2 = aminoglycine; Ava = NCCCCC(=O)O; βAla = NCCC(=O)O

B1: PTR 6020 (peptide)
peptide: RPRTS[Abu]F
modifications: not fully specified (C-terminus); printed as Arg-Pro-Arg-Thr-Ser-Abu-Phe-(O-CO-N-bAla-SO2-IQ); also: -(O-CO-N-bAla-SO2-IQ) on Phe7, attachment unclear

Legend:
Test in all cases: cell-based or functional assay
protein kinase B, P31749 = biological target: protein kinase B, P31749
Sequence of protein kinase B, P31749 (P31749 whole entry): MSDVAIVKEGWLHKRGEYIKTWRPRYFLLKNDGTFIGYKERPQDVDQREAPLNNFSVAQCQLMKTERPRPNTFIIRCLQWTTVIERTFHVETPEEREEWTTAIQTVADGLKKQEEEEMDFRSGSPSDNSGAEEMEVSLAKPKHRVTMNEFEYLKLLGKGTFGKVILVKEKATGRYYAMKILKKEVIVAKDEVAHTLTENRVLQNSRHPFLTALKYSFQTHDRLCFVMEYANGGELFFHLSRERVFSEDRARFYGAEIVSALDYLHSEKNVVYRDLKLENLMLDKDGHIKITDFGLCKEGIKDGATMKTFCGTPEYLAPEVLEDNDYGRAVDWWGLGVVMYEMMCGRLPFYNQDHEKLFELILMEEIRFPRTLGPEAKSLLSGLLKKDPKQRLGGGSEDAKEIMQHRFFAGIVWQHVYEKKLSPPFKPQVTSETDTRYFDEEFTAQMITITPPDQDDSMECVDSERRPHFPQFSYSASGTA

protein kinase B = protein kinase B (UniProt P31749)
Sequence of protein kinase B (P31749 whole entry): as above

[1] = biological target: protein kinase A, catalytic subunit

Row | Binder | PKB IC50 (protein kinase B, P31749) | Activity PKB (protein kinase B, P31749) | other results
1 | RPRTE([βAla-S‑IQ])SF [PTR 6102] | 300 nM | – | IC50 PKB (protein kinase B, P31749): 300 nM
2 | RPR[Orn]E([Gly-X1])[Dab][hLeu] (not fully specified (C-terminus)) [TY-60020-42] | – | – | % inhibition of kinase activity at 1 µM; PKB-kinase (spa) Assay 1 (protein kinase B): 80%; % inhibition of kinase activity at 1 µM; PKB-kinase (spa) Assay 2 (protein kinase B): 86%; IC50 PKB (protein kinase B): 110 nM; % inhibition of kinase activity at 1 µM; PKA-kinase Assay 1 [1]: 99%; % inhibition of kinase activity at 1 µM; PKA-kinase Assay 2 [1]: 99%; IC50 PKA [1]: 50 nM
3 | RPRTS[Abu]F-{O‑CO‑N‑SO2‑IQ} (not fully specified; printed as Arg-Pro-Arg-Thr-Ser-Abu-Phe-(O-CO-N-SO2-IQ)) [PTR 6013] | 4000 nM | 3 µM | –
4 | RPRTSE(SO2‑IQ)F [PTR 6014] | 25000 nM | 25 µM | –
5 | RPRTE(SO2‑IQ)SF [PTR 6016] | 1000 nM | 0.9 µM | –
6 | B1 | 18000 nM | > 20 µM | –
7 | RPR[Nle]E([βAla-X1])AF (not fully specified (C-terminus)) [TY-60020-93] | – | – | % inhibition of kinase activity at 1 µM; PKB-kinase (spa) Assay 1 (protein kinase B): -12%; % inhibition of kinase activity at 1 µM; PKB-kinase (spa) Assay 2 (protein kinase B): 58%
8 | RPR[Nle]E([βAla-X1])A[hLeu] (not fully specified (C-terminus)) [TY-60020-94] | – | – | % inhibition of kinase activity at 1 µM; PKB-kinase (spa) Assay 1 (protein kinase B): 9%; % inhibition of kinase activity at 1 µM; PKB-kinase (spa) Assay 2 (protein kinase B): 31%
9 | RPR[Nle]E([βAla-X1])[Nva][hLeu] (not fully specified (C-terminus)) [TY-60020-96] | – | – | % inhibition of kinase activity at 1 µM; PKB-kinase (spa) Assay 1 (protein kinase B): 0%; % inhibition of kinase activity at 1 µM; PKB-kinase (spa) Assay 2 (protein kinase B): 54%
10 | RPRTE([βAla-SO2‑IQ])SF [PTR 6082] | 5540 nM | – | –
11 | RPR[Nle]E([βAla-SO2‑IQ])SF [PTR 6086] | 570 nM | – | –
12 | RPR[Orn]E([bGaba-SO2‑IQ])SF (reading uncertain) [PTR 6088] | 1180 nM | – | –
13 | RPRTE(S‑IQ)SF [PTR 6104] | 100 nM | – | IC50 PKB (protein kinase B, P31749): 100 nM
14 | RPRTE([Ava-SO2‑IQ])SF [PTR 6090] | 5600 nM | – | –
15 | RPR[Nle]E([βAla-SO2‑IQ])S[Nle] [PTR 6096] | 930 nM | – | –
16 | RPRT[Dap]SF (not fully specified (residue 5)) [PTR 6106] | 10000 nM | – | –
17 | RPR[Nle]E(SO2‑IQ)SF [PTR 6128] | 9000 nM | – | –
18 | RPRTD(SO2‑IQ)SF [PTR 6130] | 9500 nM | – | –
19 | RPR[Orn]E(SO2‑IQ)SF [PTR 6132] | 20 nM | – | IC50 PKB (protein kinase B, P31749): 20 nM

Row | Binder | PKB IC50 (protein kinase B, P31749) | Activity PKB (protein kinase B, P31749) | other results
20 | RPR[Nva]E(S‑IQ)SF [PTR 6134] | 217 nM | – | –
21 | RPR[Nle]E(S‑IQ)SF [PTR 6136] | 114 nM | – | –
22 | RPR[Nle]E([βAla-SO2‑IQ])[Abu]F [PTR 6138] | 2000 nM | – | –
23 | RPR[Nle]E([βAla-SO2‑IQ])[Dab]F [PTR 6140] | 413 nM | – | –
24 | RPR[Nva]E(SO2‑IQ)A[hLeu] [PTR 6150] | 25000 nM | – | –
25 | RPR[Nva]E([βAla-SO2‑IQ])A[hLeu] [PTR 6152] | 5000 nM | – | –
26 | RPRTS[GlyNH2]F [60005-5] | – | – | % Inhibition PKB I (protein kinase B, P31749): 96%; % Inhibition PKB II (protein kinase B, P31749): 93%; IC50 µM PKB (protein kinase B, P31749): 2.4 µM
27 | RPR[Nva][GlyNH2]A[hLeu] [60006-5A] | – | – | % Inhibition PKB I (protein kinase B, P31749): 47%; % Inhibition PKB II (protein kinase B, P31749): 43%; IC50 µM PKB (protein kinase B, P31749): 10 µM
28 | RPRTSA[hLeu] [TY 60002-50] | – | 5 µM | % Inhibition PKB I (protein kinase B, P31749): 62%
29 | RPR[Nva][GlyNH2][Abu][hLeu] [60006-7B] | – | – | % Inhibition PKB I (protein kinase B, P31749): 53%; % Inhibition PKB II (protein kinase B, P31749): 47%
30 | RPR[Nva][GlyNH2][Dap][Ph2] (reading uncertain) [60006-11B] | – | – | % Inhibition PKB I (protein kinase B, P31749): 51%; % Inhibition PKB II (protein kinase B, P31749): 44%
31 | RPR[Nva][GlyNH2][GltNH2][hLeu] (reading uncertain) [60006-16A] | – | – | % Inhibition PKB I (protein kinase B, P31749): 42%; % Inhibition PKB II (protein kinase B, P31749): 42%
32 | RPRTS[Abu][hLeu] [TY 60002-73] | – | 5 µM | % Inhibition PKB I (protein kinase B, P31749): 44%; IC50 µM PKB (protein kinase B, P31749): 34 µM
33 | RPRVS[Abu]F [TY 60002-61] | – | 5 µM | –
34 | RPRTS[Dap][hLeu] [TY 60002-96] | – | 5 µM | –
35 | RPRMSSF [AR 60003-50] | – | 2.5 µM | –
36 | RPR[Orn]SSF [AR 60003-52] | – | 2.5 µM | –
37 | RPRRSSF [AR 60003-53] | – | 3 µM | –
38 | RPR[Nle]SS[Nle] [AR 60003-62] | – | < 1 µM | % inhibition at 1 µM (protein kinase B, P31749): 70%
